The text below walks through data of patent US20130089557A1 (SAMSUNG ELECTRONICS, published 2013).

Experiment [1] has as its target T1, human c-Met protein (human, UniProt P08581 25-932, limits assumed).
T1 construct: also called c-Met antigen
The experiment can be described thus: method not described.

Experiment [2] addresses c-Met on MKN45 gastric cancer cells and on Caki-1 cells (human, UniProt P08581 25-1390). In words: cell-based or functional assay.
The target of experiment [3] is T2, FSPQIEDPSQCPDCVVSALGAKVL (SEQ ID NO: 71).
T2 construct: Peptide with the E168D mutation
T2 peptide: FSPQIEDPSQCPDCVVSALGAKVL
The experiment can be described thus: PEPSCAN peptide ELISA. As for the experimental part:
(§1) For epitope mapping, PEPSCAN-based ELISA was performed using a total number of 529 linear and CLIPS peptides. The peptides were maintained at room temperature for 30 minutes by using a 5% blocking solution to provoke a reaction (4% ovalbumin, 5% horse serum, and 1% Tween 80). […] Thereafter, the resultant product was treated with rabbit-anti-sheep antibody (SIGMA) and washed with PBS, and the washed product was then treated with peroxidase-attached swine-anti-rabbit antibody (SIGMA) and washed with PBS. Then, the resultant product was treated with 2 ul/ml of peroxidase 2,2′-azino-di-3-ethylbenzthiazoline sulfonate (ABTS)(SIGMA) in 3% H₂O₂, and a color reaction was measured after 1 hour.
Background: An ELISA detects its analyte on a solid surface through an enzyme-linked reagent.

Experiment [4] addresses T3, CSPQIEDPSQC (SEQ ID NO: 72).
T3 peptide: CSPQIEDPSQC
The experiment can be described thus: PEPSCAN peptide ELISA. As for the experimental part:
as §1

The target in experiment [5] is T4, CPQIEDPSQAC (SEQ ID NO: 73).
T4 peptide: CPQIEDPSQAC
The experiment can be described thus: PEPSCAN peptide ELISA. As for the experimental part:
as §1

Experiment [6] has as its target T5, CQIEDPSQAPC (SEQ ID NO: 74).
T5 peptide: CQIEDPSQAPC
In words: PEPSCAN peptide ELISA. The procedure: as §1

The target of experiment [7] is T6, CIEDPSQAPDC (SEQ ID NO: 75).
T6 peptide: CIEDPSQAPDC
In words: PEPSCAN peptide ELISA. As for the experimental part:
as §1

Experiment [8] addresses T7, CEDPSQAPDAC (SEQ ID NO: 76).
T7 peptide: CEDPSQAPDAC
The experiment can be described thus: PEPSCAN peptide ELISA. As for the experimental part: as §1

Experiment [9] has as its target T8, AAAAA peptide (SEQ ID NO: 77).
T8 peptide: AAAAA
In words: SPR (Biacore), huAbF46 on CM5 chip, peptide injected. For orientation: SPR reads the build-up and loss of mass on a sensor chip optically.

Experiment [10] deals with T9, AEPSQ peptide (SEQ ID NO: 78).
T9 peptide: AEPSQ
The description is as above.

Experiment [11] concerns the target T10, EAPSQ peptide (SEQ ID NO: 79).
T10 peptide: EAPSQ
Described as above.

Experiment [12] concerns the target T11, EEASQ peptide (SEQ ID NO: 80).
T11 peptide: EEASQ
The description is as above.

Experiment [13] concerns the target T12, EEPSA peptide (SEQ ID NO: 82).
T12 peptide: EEPSA
The description is as above.

For experiment [14], the target named is T13, EEPSQ peptide (SEQ ID NO: 3).
T13 construct: the range is one residue short
T13 peptide: EEPSQ
In words: SPR (Biacore), huAbF46 on CM5 chip, peptide injected 0.39-100 nM.

For experiment [15], the target named is T14, EEPAQ peptide (SEQ ID NO: 81).
T14 peptide: EEPAQ
The experiment is described as above.

For experiment [16], the target named is T1, human c-Met protein. The experiment can be described thus: SPR (Biacore), against huAbF46 (Table 3). The procedure:
Affinities of the 4 types of antibodies against c-Met antigen were measured by using a Biacore (GE healthcare). About 80 to 110 RU of each antibody was immobilized on a CM5 chip, and 9 different concentrations ranging from 0.39 nM to 100 nM of human c-Met protein, as an antigen, were injected at a rate of 30 ul/min to obtain kₒₙ values and koff values as shown in Table 3. Then, KD values were calculated based thereon.

Positions count from the first letter of the chain named.

c-Met on MKN45 gastric cancer cells and on Caki-1 cells, sequence (P08581 25-1390): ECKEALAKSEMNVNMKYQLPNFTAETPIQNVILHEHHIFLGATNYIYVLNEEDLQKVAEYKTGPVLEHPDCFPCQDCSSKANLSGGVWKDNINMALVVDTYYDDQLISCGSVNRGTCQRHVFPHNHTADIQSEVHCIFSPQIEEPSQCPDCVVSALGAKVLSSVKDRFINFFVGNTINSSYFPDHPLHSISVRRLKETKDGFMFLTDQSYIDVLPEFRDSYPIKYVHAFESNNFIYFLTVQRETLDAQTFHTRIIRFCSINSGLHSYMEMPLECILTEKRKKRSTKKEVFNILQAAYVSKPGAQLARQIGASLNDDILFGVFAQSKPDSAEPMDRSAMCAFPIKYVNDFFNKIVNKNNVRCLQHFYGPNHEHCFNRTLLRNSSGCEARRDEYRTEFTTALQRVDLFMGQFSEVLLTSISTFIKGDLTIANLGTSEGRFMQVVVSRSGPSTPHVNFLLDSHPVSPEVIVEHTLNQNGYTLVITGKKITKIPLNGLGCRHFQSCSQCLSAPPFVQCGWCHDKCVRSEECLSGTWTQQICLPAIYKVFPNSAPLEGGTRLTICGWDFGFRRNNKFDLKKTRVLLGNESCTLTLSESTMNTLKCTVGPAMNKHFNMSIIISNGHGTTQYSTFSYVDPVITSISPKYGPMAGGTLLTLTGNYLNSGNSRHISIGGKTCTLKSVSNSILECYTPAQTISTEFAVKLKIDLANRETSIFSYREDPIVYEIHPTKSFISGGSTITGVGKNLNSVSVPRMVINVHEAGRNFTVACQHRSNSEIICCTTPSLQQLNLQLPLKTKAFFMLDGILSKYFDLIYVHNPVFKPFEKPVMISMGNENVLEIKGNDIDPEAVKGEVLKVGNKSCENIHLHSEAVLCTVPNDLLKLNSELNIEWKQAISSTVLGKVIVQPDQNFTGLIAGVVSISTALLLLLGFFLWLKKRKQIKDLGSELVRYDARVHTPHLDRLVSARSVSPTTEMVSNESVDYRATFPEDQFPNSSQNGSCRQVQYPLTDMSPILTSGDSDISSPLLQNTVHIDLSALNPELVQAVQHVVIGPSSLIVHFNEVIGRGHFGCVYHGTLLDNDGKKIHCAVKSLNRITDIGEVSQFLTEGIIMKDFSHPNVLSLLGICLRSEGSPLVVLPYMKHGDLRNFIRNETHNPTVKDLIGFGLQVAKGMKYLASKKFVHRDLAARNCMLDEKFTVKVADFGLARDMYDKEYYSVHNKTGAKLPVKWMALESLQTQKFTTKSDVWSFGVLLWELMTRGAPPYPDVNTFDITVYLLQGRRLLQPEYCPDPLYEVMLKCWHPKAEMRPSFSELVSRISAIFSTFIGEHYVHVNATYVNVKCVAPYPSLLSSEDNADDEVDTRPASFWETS
T1 sequence (P08581 25-932 limits assumed): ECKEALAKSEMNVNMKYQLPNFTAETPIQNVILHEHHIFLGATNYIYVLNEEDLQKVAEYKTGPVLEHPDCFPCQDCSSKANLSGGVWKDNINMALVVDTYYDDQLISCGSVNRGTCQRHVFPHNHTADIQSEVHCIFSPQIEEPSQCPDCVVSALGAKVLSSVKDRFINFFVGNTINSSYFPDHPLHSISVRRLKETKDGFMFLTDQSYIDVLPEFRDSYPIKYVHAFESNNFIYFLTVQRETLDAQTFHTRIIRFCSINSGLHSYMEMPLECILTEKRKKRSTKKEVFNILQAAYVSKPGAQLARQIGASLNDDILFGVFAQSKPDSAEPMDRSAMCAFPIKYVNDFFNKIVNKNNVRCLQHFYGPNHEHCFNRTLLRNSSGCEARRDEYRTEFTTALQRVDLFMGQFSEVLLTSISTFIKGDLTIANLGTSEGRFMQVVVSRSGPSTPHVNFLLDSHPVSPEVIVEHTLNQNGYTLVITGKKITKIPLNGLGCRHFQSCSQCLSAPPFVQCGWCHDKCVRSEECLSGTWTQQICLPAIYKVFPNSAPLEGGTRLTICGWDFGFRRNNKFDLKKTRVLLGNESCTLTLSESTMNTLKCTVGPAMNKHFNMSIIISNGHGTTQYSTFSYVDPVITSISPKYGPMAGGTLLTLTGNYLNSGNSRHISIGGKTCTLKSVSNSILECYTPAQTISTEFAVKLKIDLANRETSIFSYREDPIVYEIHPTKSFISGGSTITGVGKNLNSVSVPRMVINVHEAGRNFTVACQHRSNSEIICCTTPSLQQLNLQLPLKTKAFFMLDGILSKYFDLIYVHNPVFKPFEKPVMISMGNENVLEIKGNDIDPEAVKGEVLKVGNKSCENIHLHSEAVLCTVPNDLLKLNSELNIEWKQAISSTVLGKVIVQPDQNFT

B1: scFv of huAbF46 antibody (scFv)
scFv: EVQLVESGGGLVQPGGSLRLSCAASGFTFTDYYMSWVRQAPGKGLEWLGFIRNKANGYTTEYSASVKGRFTISRDNSKNTLYLQMNSLRAEDTAVYYCARDNWFAYWGQGTLVTVSSGLGGLGGGGSGGGGSGGSSGVGSDIQMTQSPSSLSASVGDRVTITCKSSQSLLASGNQNNYLAWHQQKPGKAPKMLIIWASTRVSGVPSRFSGSGSGTDFTLTISSLQPEDFATYYCQQSYSAPLTFGQGTKVEIKR
notes: 'VH-linker-VL' form; Tags or display fusion partner not described; also called wild-type antibody (scFv of huAbF46)
On to B1, for which the binding result in experiment [1] is “binds”.

B2: huAbF46-H4-A5 (antibody, V domains shown)
VH: EVQLVESGGGLVQPGGSLRLSCAASGFTFTDYYMSWVRQAPGKGLEWLGFIRNKANGYTTEYSASVKGRFTISRDNSKNTLYLQMNSLRAEDTAVYYCARDNWFAYWGQGTLVTVSS
VL: DIQMTQSPSSLSASVGDRVTITCKSSQSLLASGNQNNYLAWHQQKPGKAPKMLIIWASTRVSGVPSRFSGSGSGTDFTLTISSLQPEDFATYYCQQSYSRPFTFGQGTKVEIKR
On to B2, for which the “degree of degradation of c-Met (total c-Met ELISA, MKN45 cells, 5 ug/ml antibody, 24 hours)” value (shortened to “degree of degradation of c-Met”) in [2] is approximately 28%.

B3: humanized antibody huAbF46 (H4-heavy chain and H4-light chain) (antibody, human IgG1, kappa, V domains shown)
VH: B2 VH
VL: B2 VL with R100A, F102L
notes: also called humanized antibody AbF46
For B3, the binding result in [3], in experiment [4], in experiment [5], in experiment [6], in [7] and in experiment [8] was “no binding (tested: 1 to 100 ug/ml of huAbF46 antibody)” throughout. The binding result in [9], in experiment [10], in experiment [11], in experiment [12] and in experiment [13] was “no binding (tested: 100 nM to 0.39 nM of the peptides)” each time. The Kd in experiment [14] turned out to be 1.64 nM; in experiment [15], 1.43 nM.

B4: huAbF46-H4-A1 (antibody, V domains shown)
VH: B2 VH
VL: B2 VL with F102Y
notes: IgG; also called IgG from clone L3-1
In the case of B4, the “degree of degradation of c-Met” value in experiment [2] was approximately 37%. In addition, in [16], the “fold improvement of affinity” value was determined as 37 times.

B5: huAbF46-H4-A3 (antibody, V domains shown)
VH: B2 VH
VL: B2 VL with Q95A, R100H, T103S
Take B5: the “degree of degradation of c-Met” value in experiment [2] was approximately 28%.

B6: huAbF46-H4-A2 (antibody, V domains shown)
VH: B2 VH
VL: B2 VL with Q95G, F102L
notes: IgG; also called IgG from clone L3-2
Regarding B6, in [2], the “degree of degradation of c-Met” value was approximately 28%. Also, the “fold improvement of affinity” value in experiment [16] came to 5 times.

One may read the Kd as the equilibrium constant for the complex coming apart. Higher therefore signals lower affinity.
